The results in this text go back to US20260008852A1 (CRYSTAL BIOSCIENCE, published 2026).

T1: His-tagged cynomolgus monkey B7-H3 (cynomolgus monkey)
T1 chain: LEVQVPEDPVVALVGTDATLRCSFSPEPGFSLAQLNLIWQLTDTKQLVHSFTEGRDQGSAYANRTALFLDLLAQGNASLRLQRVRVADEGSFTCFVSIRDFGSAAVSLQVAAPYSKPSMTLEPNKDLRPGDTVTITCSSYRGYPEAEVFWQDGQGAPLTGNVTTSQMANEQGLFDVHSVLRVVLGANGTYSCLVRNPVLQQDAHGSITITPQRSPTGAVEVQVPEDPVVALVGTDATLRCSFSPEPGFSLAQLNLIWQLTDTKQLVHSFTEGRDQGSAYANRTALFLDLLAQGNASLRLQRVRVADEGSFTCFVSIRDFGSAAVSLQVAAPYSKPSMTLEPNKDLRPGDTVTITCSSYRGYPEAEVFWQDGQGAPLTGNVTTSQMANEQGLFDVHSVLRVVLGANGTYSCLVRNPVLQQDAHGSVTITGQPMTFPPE

T2: B7-H3 on B7-H3-expressing CHO cells (Genescript) (UniProt Q5ZPR3 29-534, limits assumed)
T2 construct: whole, on cells; also called CHO-K1/B7-H3; MFI B7-H3
T2 sequence (looked up): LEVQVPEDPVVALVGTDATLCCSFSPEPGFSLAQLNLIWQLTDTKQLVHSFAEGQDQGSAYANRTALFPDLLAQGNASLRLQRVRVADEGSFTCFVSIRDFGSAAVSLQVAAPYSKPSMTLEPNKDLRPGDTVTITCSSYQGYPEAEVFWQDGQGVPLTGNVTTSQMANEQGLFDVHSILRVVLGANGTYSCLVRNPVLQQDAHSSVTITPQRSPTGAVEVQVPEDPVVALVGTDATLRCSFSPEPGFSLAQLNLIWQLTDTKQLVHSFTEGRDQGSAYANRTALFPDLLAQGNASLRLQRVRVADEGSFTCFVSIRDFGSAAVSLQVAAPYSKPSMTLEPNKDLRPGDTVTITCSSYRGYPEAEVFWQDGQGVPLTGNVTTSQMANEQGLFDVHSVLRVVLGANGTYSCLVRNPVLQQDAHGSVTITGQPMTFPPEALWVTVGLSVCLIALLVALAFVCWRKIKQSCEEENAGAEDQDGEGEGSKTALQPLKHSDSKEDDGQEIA

T3: B7-H3 on CHO-K1 cells stably transfected with B7-H3 (GenScript #M00536) (UniProt Q5ZPR3 29-534, limits assumed)
T3 sequence (looked up): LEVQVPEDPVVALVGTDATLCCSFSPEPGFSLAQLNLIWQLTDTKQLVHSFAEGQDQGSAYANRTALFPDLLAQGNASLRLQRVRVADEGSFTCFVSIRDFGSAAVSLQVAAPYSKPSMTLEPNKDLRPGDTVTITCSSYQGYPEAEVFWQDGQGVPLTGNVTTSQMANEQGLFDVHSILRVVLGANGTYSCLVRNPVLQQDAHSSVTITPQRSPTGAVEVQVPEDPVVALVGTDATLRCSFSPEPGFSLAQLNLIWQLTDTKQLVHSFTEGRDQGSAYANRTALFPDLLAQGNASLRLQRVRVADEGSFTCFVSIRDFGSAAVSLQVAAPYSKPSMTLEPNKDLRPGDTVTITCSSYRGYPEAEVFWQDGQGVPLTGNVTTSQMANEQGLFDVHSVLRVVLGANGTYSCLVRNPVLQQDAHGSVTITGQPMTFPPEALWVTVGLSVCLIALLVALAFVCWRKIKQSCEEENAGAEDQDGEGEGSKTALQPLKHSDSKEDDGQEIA

B1: 40633p1.2.C11 (scFv, V domains shown)
VH: EVQLLESGGGLVQPGGSLRLSCAASGFTFSSYWMSWVRQAPGKGLEWVAGINRNGGSTYYADSVKGRFTISRDNSENTLYLQVNSLRAEDTAVYYCARWNDYDIMDVWGQGTTVTVSS
VL: QSVLTQPSSASGTPGQRVTISCSGSSSNVGRRAVNWYQQLPGTAPKLLISNSQRPSGVPDRFSGSKSGTSASLAISGLQSEDEADYYCATWDASLNSWVFGGGTKLTVL
notes: Tested as scFv-Fc (Expi293 supernatant)
B2: 40633p1.1.G11 IgG (antibody, V domains shown)
VH: EVQLLESGGGLVQPGGSLRLSCAASGFTVSYYGMSWVRQAPGKGLEWVSVIKQDGSEEYYADSVKGRFTISRDNSKNTLYLQMNSPRAEDTAVYYCARHWNDYSNGMNVWGQGTTVTVSS
VL: QSVLTQPPSASGTPGQRVTISCSGSTSNVGDRYVYWYQQLPGTAPKLLIYLDDQRPSGVPDRFSGSKSGTSASLAISGLQSEDEADYYCASWDASLNGWVFGGGTKLTVL
B3: 40633p1.2.A10 IgG (antibody, V domains shown)
VH: EVQLLESGGGLVQPGGSLRLSCAASGFTVSYYGMSWVRQAPGKGLEWVSVIKQDGSEEYYADSVKGRFTISRDNSKNTLYLQMNSLRAEDTAVYYCARHWNDYSNGMNVWGQGTTVTVSS
VL: QSVLTQPPSASGTPGQRVTISCSGSTSNVGDRYVYWYQQLPGTAPKLLIYLDDQRPSGVPDRFSGSKSGTSASLAISGLQSEDEADYYCASWDASLNGWVFGGGTKLTVL
B4: 40633p1.1.G5 IgG (antibody, V domains shown)
VH: EVQLLESGGGLVQPGGSLRLSCAASGFIVNYYGMSWVRQPPGKGLEWVSAIKQDGSEKYYADSVKGRFTISRDNSKTTLYLQMNSLRAEDTAVYYCARHWNDYSNGMNVWGQGTTVTVSS
VL: QSVLTQPPSASGTPGQRVTISCSGSWSNIGSYNSHWYQKLPGTAPKLLIYTTDRRPSGVPDRFSGSKSGTSASLAISGLQSEDEADYYCGTWDDSLNVWVFGGGTKLTVL
B5: 40633p1.2.D11 IgG (antibody, V domains shown)
VH: EVQLESGGGLVQPGGSLRLSCAASGFTVSYYGMSWVRQAPGKGLEWVSAIKQDGSEKYYADSVKGRFTISRDNSKNTLYLQMNSLRAEDTAVYYCARHWNDYSNAMNVWGQGTTVTVSS
VL: QSVLTQPPSASGTPGQRVTISCSGSTSNIAIDFVNWYQQLPGTAPKLLIYTIDQRPSGVPDRFSGSKSGTSASLAISGLQSEDEAVYYCASWDASLNGWVFGRGTKLTVL
B6: 40633p1.2.C3 IgG (antibody, V domains shown)
VH: EVQLLESGGGLVQPGGSLRLSCAASGFTVSYYGMSWVRQAPGKGLEWVSAIKQDGSEKYYADSVKGRFTISRDNSKNTLYLQMNSLRAEDTAVYYCARHWNDYSNAMNVWEQGTTVTVSS
VL: QSVLTQPPSASGTPGQRVTISCSGSNSNVGGNYVSWYQQLPGTAPKLLIYRNSQRPSGVPDRFSGSKSGTSASLAISGLQSEDEAVYYCASWDASLNGWVFGGGTKLTVL
B7: 40633p1.2.D1 IgG (antibody, V domains shown)
VH: EVQLLESGGGLVQPGGSLRLSCAASGFTFDVYGMSWVRQAPGKGLEWVSAINWNGGSTYYADSVKGRFTISRDNSENTLYLQMNSLRAEDTAVYYCAKEKWKHFIYYGMDVWGQGTTVTVSS
VL: QSVLTQPASASGTPGQTVSISCSGSSSNIDSNTANWYQQLPGTAPKLLIYSNNQRPSGVPDRFSGSKSDTSASLAISGLQSEDEGDYYCSAWDDNLNGWLFGGGTKLTVL
B8: 40633p1.1.G7 IgG (antibody, V domains shown)
VH: EVQLLESGGGLVQPGGSLRLSCAASGFTFSGSAMNWVRQAPGKGLEWVSAINSGGTTIYYADSVKGRFTVSRDNSKNTLYLQMNSLRAEDTAVYYCVKLDFYYGMDVWGEGTTVTVSS
VL: QSVVTQPPSASGTPGQRVTVSCSGSSSNVGSKYVQWYQQLPGTAPKLLIYATDRRPSGVPDRFSGSKSGTSASLAISGLQSEDEADYYCASWDDSLNAWVFGGGTKLTVL
B9: 40633p1.1.F2 IgG (antibody, V domains shown)
VH: EVQLLESGGGLVQPGGSLRLSCVASGLTFNGFAMTWVRQAPGKGLEWVSGISWNSGSIYYADSVKGRFTISRDNSKNTVYLQMSSLRAEDTAIYYCAKNWNDYYNSMDVWGQGTTVTVSS
VL: QSVLTQPPSASGTPGQRVTISCSGSRSNIGTKYVYWYQQFPGTAPKLLIYTTDRRPSGVPDRFSGSKSGTSASLAISGLQSEDEADYYCSAWDDRLNAWVFGGGTKLTVL
B10: 40633p1.1.H11 IgG (antibody, V domains shown)
VH: EVQLLESGGGLVQPGGSLRLSCAASGFTFSSYPMTWVRQAPGKGLEWVADINSGGGTTLYADAVKGRFTISRDNSKNIVYLQMNSLRGEDTAVYYCAKHLDYYSYGMDVWGQGTTVTVSS
VL: QSVLTQPPSASGTPGQRVTISCSGVTSKIGSKYVHWYQQLPGTAPKLLIYRNFERPSGVPDRFSGSTSGTSASLAISGLQSEDEADYYCATWEGALNGWVFGGGTKLTVL
B11: 40633p1.2.C11 IgG (antibody, V domains shown)
VH: EVQLLESGGGLVQPGGSLRLSCAASGFTFSSYWMSWVRQAPGKGLEWVAGINRNGGSTYYADSVKGRFTISRDNSENTLYLQVNSLRAEDTAVYYCARWNDYDIMDVWGQGTTVTVSS
VL: QSVLTQPSSASGTPGQRVTISCSGSSSNVGRRAVNWYQQLPGTAPKLLISNSQRPSGVPDRFSGSKSGTSASLAISGLQSEDEADYYCATWDASLNSWVFGGGTKLTVL
B12: 40633p1.2.D7 IgG (antibody, V domains shown)
VH: EVQLLESGGSLVQPGGSLRLSCAASGFTFSSYWMSWVRQAPGKGLEWVSGISSSGSATYYADSVKGRFTISRDNSKNTLYLQMNSLRAEDTAVYYCARWNDYDIMDVWGQGTTVTVSS
VL: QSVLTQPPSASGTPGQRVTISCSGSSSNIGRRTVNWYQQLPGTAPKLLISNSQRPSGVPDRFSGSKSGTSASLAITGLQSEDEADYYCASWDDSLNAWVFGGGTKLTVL

For one assay, the target named is T1, His-tagged cynomolgus monkey B7-H3. The experiment in a line: ELISA, coated His-tagged antigen, scFv-Fc 1 ug/ml. The method, then:
The variable regions of heavy and light chains were cloned and assembled into a single chain Fv-Fc (ScFv-Fc) mammalian expression vector. Sanger sequencing was performed by GeneWiz and sequences were evaluated using DNASTAR Lasergene 15. Unique scFv-Fes were transiently expressed in Expi293 cells (Life Technologies, #A14527) grown in Expi293 Expression Medium (Life Technologies, #A1435101) after transfection using the ExpiFectamine transfection reagent and supplements (Life Technologies, #A14524). Cells were incubated for 3-5 days with shaking at 37° C. in a 5% CO2 humidified incubator.
Background: In an ELISA, binding on a coated surface is turned into a signal by an enzyme label.
As for B1, the “ELISA OD450 @ 1 ug/ml” value was 0.045 OD450.

A further assay deals with T2, B7-H3 on B7-H3-expressing CHO cells …. The experiment in a line: flow cytometry, B7-H3-expressing CHO cells, 10 ug/ml. The protocol: Binding of anti-B7-H3 antibodies to cell lines was assessed by flow cytometry. Briefly, approximately 1.5 e5 B7-H3-expressing CHO cells (Genescript) or parent CHO cells (ATCC) were resuspended in FACS buffer (PBS/1% BSA/0.01% NaN3) containing 10 μg/ml of anti-B7-H3 antibodies and incubated for 60 min on ice. […] Cells were then washed twice, resuspended in FACS buffer, and read on an Attune Flow Cytometer (Life Technologies). Data are expressed as Mean Fluorescent Intensities (MFI).
For orientation: Flow cytometry measures light scatter and fluorescence of single cells or particles in a stream.
As to B1, the “MFI @ 10 ug/ml” value was 18300 MFI.

Another assay deals with T3, B7-H3 on CHO-K1 cells stably …. The experiment in a line: cell-based or functional assay.
B2: the “ADCC reporter assay, EC50 Value, CHOK1/B7-H3 cells” value (shortened to “ADCC reporter assay, EC50 Value”) was found to be 0.0344 mg/L and the “ADCC reporter assay, Max RLU, CHOK1/B7-H3 cells” value (shortened to “ADCC reporter assay, Max RLU”) turned out to be 725000 RLU.
The matching figures for B3: 0.0471 mg/L and 762000 RLU.
For the molecule B4, the “ADCC reporter assay, EC50 Value” value was determined as 0.18 mg/L and the “ADCC reporter assay, Max RLU” value stood at 452000 RLU.
As for B5, the “ADCC reporter assay, EC50 Value” value turned out to be 0.107 mg/L and the “ADCC reporter assay, Max RLU” value is 510000 RLU.
Regarding B6, the “ADCC reporter assay, EC50 Value” value worked out at 0.402 mg/L and the “ADCC reporter assay, Max RLU” value worked out at 490000 RLU.
As for B7, the “ADCC reporter assay, EC50 Value” value worked out at 0.0216 mg/L and the “ADCC reporter assay, Max RLU” value came to 676000 RLU.
As for B8, the “ADCC reporter assay, EC50 Value” value stood at 0.0419 mg/L and the “ADCC reporter assay, Max RLU” value came to 656000 RLU.
With B9, the “ADCC reporter assay, EC50 Value” value amounted to 0.0214 mg/L and the “ADCC reporter assay, Max RLU” value was 519000 RLU.
In the case of B10, the “ADCC reporter assay, EC50 Value” value was 0.0412 mg/L and the “ADCC reporter assay, Max RLU” value was 798000 RLU.
The matching figures for B11: roughly 1.56 mg/L and 94400 RLU.
Turning to B12, the “ADCC reporter assay, EC50 Value” value amounted to 0.0213 mg/L and the “ADCC reporter assay, Max RLU” value was 820000 RLU.
